Laboratory results taken from US20170355730A1 (ENTRADA THERAPEUTICS, published 2017).
Starred links: 1 amine or outer side, 2 acyl side, 3 side chain; linkers in the order of their positions; H or OH if unused. Non-standard residues stand in square brackets, D forms with d. Primed or numbered codes have the meaning given here. No end group written: not given here. *: point of attachment. FITC = O=C1OC2(c3ccc(O)cc3Oc3cc(O)ccc32)c2ccc(NC(=S)*)cc21; Trimesoyl = O=C(c1cc(C(=O)[*:2])cc(C(=O)[*:3])c1)[*:1]; F2Pmp = N[C@@H](Cc1ccc(C(F)(F)P(=O)(O)O)cc1)C(=O)O; Phe(4-F) = N[C@@H](Cc1ccc(F)cc1)C(=O)O; dPhe(4-F) = N[C@H](Cc1ccc(F)cc1)C(=O)O; 2Nal = N[C@@H](Cc1ccc2ccccc2c1)C(=O)O; Pip′ = L-homoproline (pipecolyl); AMC = Cc1cc(=O)oc2cc(N*)ccc12; Phg = N[C@H](C(=O)O)c1ccccc1; Nle = CCCC[C@H](N)C(=O)O; Abu = CC[C@H](N)C(=O)O; Dap = NC[C@H](N)C(=O)O; Butyryl = CCCC(=O)*

T1: Caspase-3, Human, recombinant protein (human, UniProt P42574 29-277, limits assumed)
T1 sequence (looked up): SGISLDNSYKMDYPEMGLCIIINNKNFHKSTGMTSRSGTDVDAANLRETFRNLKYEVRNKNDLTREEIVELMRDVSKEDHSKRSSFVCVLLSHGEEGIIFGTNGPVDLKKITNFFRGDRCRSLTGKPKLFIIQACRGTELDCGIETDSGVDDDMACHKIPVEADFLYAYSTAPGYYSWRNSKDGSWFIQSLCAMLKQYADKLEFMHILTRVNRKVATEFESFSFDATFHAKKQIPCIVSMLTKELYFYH

T2: ybbR-tagged PTP1B catalytic domain (amino acids 1-321) (UniProt P18031 1-321, Texas Red attached through CoA/Sfp to the ybbR tag (library screening only))
T2 sequence: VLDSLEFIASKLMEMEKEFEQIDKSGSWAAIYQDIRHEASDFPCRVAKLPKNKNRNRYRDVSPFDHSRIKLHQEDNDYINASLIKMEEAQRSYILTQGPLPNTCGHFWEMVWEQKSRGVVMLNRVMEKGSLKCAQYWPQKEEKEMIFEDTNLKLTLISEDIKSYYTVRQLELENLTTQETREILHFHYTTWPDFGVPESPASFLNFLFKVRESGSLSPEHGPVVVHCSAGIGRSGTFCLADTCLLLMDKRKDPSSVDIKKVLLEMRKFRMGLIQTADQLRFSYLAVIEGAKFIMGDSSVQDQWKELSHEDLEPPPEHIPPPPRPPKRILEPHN


How the values were obtained:
[1] = target: T1, Caspase-3, Human, recombinant protein; assay: cell-based or functional assay
[2] = target: T1, Caspase-3, Human, recombinant protein; assay: cell-based or functional assay; remark: listed apart in the source
CAL-PDZ domain = CAL-PDZ domain (UniProt Q9HD26 286-370); assay: fluorescence anisotropy, FITC-labeled peptide, in the presence of 2 mM tris(carboxylethyl)phosphine
[3] = target: T2, ybbR-tagged PTP1B catalytic domain …; assay: cell-based or functional assay
[4] = target: T2, ybbR-tagged PTP1B catalytic domain …; assay: PTP1B-catalyzed pNPP hydrolysis, competitive inhibition (Lineweaver-Burk and secondary plot)
Pin4 = Pin4 (human, UniProt Q9Y237 1-131, limits assumed); assay: cell-based or functional assay
Pin4, sequence (Q9Y237 whole entry): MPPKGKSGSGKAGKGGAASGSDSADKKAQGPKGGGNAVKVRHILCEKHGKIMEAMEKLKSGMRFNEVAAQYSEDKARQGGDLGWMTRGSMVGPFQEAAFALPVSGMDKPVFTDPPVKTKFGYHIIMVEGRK

Binder	ΔFU/min [1]	IC50 (inhibition of pNPP hydrolysis) [3] [nM]	further results
Butyryl-RRRR[2Nal]FD[Nle][Abu]D-{AMC} [peptide 6 (Table 10, linear control)]	74.7 ΔFU/min		decrease of activity relative to peptide 3 [2]: 53%
{FITC}-CRRRRFWQCTRV (also: disulfide reduced by TCEP (free thiols), As assayed in the presence of 2 mM tris(carboxylethyl)phosphine) [peptide 8 (Table 10, CAL-PDZ inhibitor), reduced linear form]			Kd (CAL-PDZ domain): 489 nM
Ac-D[Nle][Abu]D-{AMC} (SMILES CCCC[C@H](NC(=O)[C@H](CC(=O)O)NC(C)=O)C(=O)N[C@@H](CC)C(=O)N[C@@H](CC(=O)O)C(=O)Nc1ccc2c(C)cc(=O)oc2c1) [peptide 3 (Table 10, caspase 3/7 substrate)]	159 ΔFU/min		
cyclo(IP[Phg][F2Pmp][Nle]RRRR[2Nal]FQ) [Monocyclic Inhibitor 3]		~200	
cyclo([dT][dN][dV][F2Pmp][dA]RRRR[2Nal]FQ) (SMILES CC(C)[C@H]1NC(=O)[C@@H](CC(N)=O)NC(=O)[C@@H]([C@H](C)O)NC(=O)[C@H](CCC(N)=O)NC(=O)[C@H](Cc2ccccc2)NC(=O)[C@H](Cc2ccc3ccccc3c2)NC(=O)[C@H](CCCNC(=N)N)NC(=O)[C@H](CCCNC(=N)N)NC(=O)[C@H](CCCNC(=N)N)NC(=O)[C@H](CCCNC(=N)N)NC(=O)[C@@H](C)NC(=O)[C@H](Cc2ccc(C(F)(F)P(=O)(O)O)cc2)NC1=O) [Monocyclic Inhibitor 1]		~100	
cyclo(S[dV]P[F2Pmp]HRRRR[2Nal]FQ) [Monocyclic Inhibitor 2]		~30	Ki [4]: 54 nM
Ac-RRRRRRRRRD[Nle][Abu]D-{AMC} (SMILES CCCC[C@H](NC(=O)[C@H](CC(=O)O)NC(=O)[C@H](CCCNC(=N)N)NC(=O)[C@H](CCCNC(=N)N)NC(=O)[C@H](CCCNC(=N)N)NC(=O)[C@H](CCCNC(=N)N)NC(=O)[C@H](CCCNC(=N)N)NC(=O)[C@H](CCCNC(=N)N)NC(=O)[C@H](CCCNC(=N)N)NC(=O)[C@H](CCCNC(=N)N)NC(=O)[C@H](CCCNC(=N)N)NC(C)=O)C(=O)N[C@@H](CC)C(=O)N[C@@H](CC(=O)O)C(=O)Nc1ccc2c(C)cc(=O)oc2c1) [peptide 7 (Table 10, R9 conjugate)]	45.3 ΔFU/min		decrease of activity relative to peptide 3 [2]: 72%
Trimesoyl-[dPhe(4-F)][Phe(4-F)][dT][Pip′][2Nal]RA[dF][Dap]F[2Nal]RRRR[Dap]K (linker (positions not given here) via Trimesoyl; not fully specified (bridges); printed as bicyclo[Tm-(D-4-Fpa-Fpa-D-Thr-Pip-Nal-Arg-Ala-D-Phe)-Dap-(Phe-Nal-Arg-Arg-Arg-Arg-Dap)]-Lys) [peptide 37 (Table 18)]			IC50 of Pin4 isomerase activity (Pin4): ~34000 nM
